Laboratory results from patent EP4585619A1 (Cichlid Inc., dated 2025).

T1: mouse VISTA protein (mVISTA-Fc, R&D Systems, Cat. No. 7005-B7) (mouse, UniProt Q9D659 33-191)
T1 construct: Bought recombinant protein; not shown: Fc part of the bought fusion protein
T1 sequence (looked up): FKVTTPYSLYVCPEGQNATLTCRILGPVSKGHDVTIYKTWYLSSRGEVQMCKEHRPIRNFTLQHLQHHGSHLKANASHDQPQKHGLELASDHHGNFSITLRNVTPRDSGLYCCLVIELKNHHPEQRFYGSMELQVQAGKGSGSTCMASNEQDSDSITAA

T2: human VISTA protein (hVISTA-Fc, R&D Systems, Cat. No. 7126-B7) (human, UniProt Q9H7M9 33-194)
T2 construct: Bought recombinant protein; not shown: Fc part of the bought fusion protein
T2 sequence (looked up): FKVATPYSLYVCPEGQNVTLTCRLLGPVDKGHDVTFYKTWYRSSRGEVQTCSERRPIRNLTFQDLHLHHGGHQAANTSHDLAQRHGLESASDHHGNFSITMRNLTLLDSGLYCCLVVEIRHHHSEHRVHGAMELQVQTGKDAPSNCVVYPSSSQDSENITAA

T3: human VISTA protein overexpressed in the NIH/3T3 cell line (human, UniProt Q9H7M9 33-311)
T3 construct: whole, on cells; Gene cloned into pCMV3-C-FLAG (Sino Biological), so a C-terminal FLAG tag is likely; On whole cells in ELISA and flow cytometry; as sonicated lysate in immunoprecipitation; as reduced, boiled RIPA lysate in the western blot; also called VISTA/NIH/3T3 cell line; VISTA-expressing cell line
T3 sequence (looked up): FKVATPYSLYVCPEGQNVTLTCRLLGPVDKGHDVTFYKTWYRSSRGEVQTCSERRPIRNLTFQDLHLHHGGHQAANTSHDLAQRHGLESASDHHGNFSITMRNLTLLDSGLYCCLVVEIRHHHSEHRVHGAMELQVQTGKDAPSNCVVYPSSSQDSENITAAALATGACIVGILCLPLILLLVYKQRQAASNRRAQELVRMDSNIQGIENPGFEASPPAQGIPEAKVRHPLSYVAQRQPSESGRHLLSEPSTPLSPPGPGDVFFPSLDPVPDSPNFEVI


Columns and labels:
[1] = target: T1, mouse VISTA protein (mVISTA-Fc, R&D …); assay: ELISA on coated mVISTA-Fc
[2] = target: T2, human VISTA protein (hVISTA-Fc, R&D …); assay: ELISA on coated hVISTA-Fc, antibody at 100 ng per well
[3] = target: T3, human VISTA protein overexpressed in …; assay: cell ELISA of scFv on VISTA-expressing NIH/3T3 cells, anti-HA HRP

Binder	binding result [1]	binding result [2]	binding result [3]
4A2 full IgG1 antibody (antibody, V domains shown, scFv clone converted to full IgG1, made in CHO-S cells; also called 4A2 antibody; anti-VISTA antibody) VH: EVQLLESGGGLVQPGGSLRLSCAASGFTFSNYAMSWVRQAPGKGLEWVSEISHSGTTNYNPSLKSRFTISRDNSKNTLYLQMNSLRAEDTAVYYCTRAIWGFDYWGQGTLVTVSS VL: QSVLTQPPSASGTPGQRVTISCSRENIGSRSVHWYQQLPGTAPKLLIYDNNERASGVPNRFSGSKSGTSASLAISGLRSEDEADYYCQAWDSSTAVFGGGTKLTVLR	no binding (tested: 100 ng per well)	binds	–
4A2 scFv (scFv, V domains shown, One-chain scFv with an HA tag from a synthetic human scFv library, made in E. coli) VH: EVQLLESGGGLVQPGGSLRLSCAASGFTFSNYAMSWVRQAPGKGLEWVSEISHSGTTNYNPSLKSRFTISRDNSKNTLYLQMNSLRAEDTAVYYCTRAIWGFDYWGQGTLVTVSS VL: QSVLTQPPSASGTPGQRVTISCSRENIGSRSVHWYQQLPGTAPKLLIYDNNERASGVPNRFSGSKSGTSASLAISGLRSEDEADYYCQAWDSSTAVFGGGTKLTVL	–	–	binds
4A3 full IgG1 antibody (antibody, V domains shown, scFv clone converted to full IgG1, made in CHO-S cells; also called anti-VISTA antibody) VH: EVQLLESGGGLVQPGGSLRLSCAASGFTFSNYYMHWVRQAPGKGLEWVSSISFTGSTSYNPSLKSRFTISRDNSKNTLYLQMNSLRAEDTAVYYCARLGIPFFTYLDYWGQGTLVTVSS VL: QSVLTQPPSASGTPGQRVTISCGGNNIGSKSVHWYQQLPGTAPKLLIYEDTERPSGVSDRFSGSKSGTSASLAISGLRSEDEADYYCQAWDSSTVVFGGGTKLTVLR	no binding (tested: 100 ng per well)	binds	–
4A3 scFv (scFv, V domains shown, One-chain scFv with an HA tag from a synthetic human scFv library, made in E. coli) VH: EVQLLESGGGLVQPGGSLRLSCAASGFTFSNYYMHWVRQAPGKGLEWVSSISFTGSTSYNPSLKSRFTISRDNSKNTLYLQMNSLRAEDTAVYYCARLGIPFFTYLDYWGQGTLVTVSS VL: QSVLTQPPSASGTPGQRVTISCGGNNIGSKSVHWYQQLPGTAPKLLIYEDTERPSGVSDRFSGSKSGTSASLAISGLRSEDEADYYCQAWDSSTVVFGGGTKLTVL	–	–	binds
4H2 scFv (scFv, V domains shown, One-chain scFv with an HA tag from a synthetic human scFv library, made in E. coli) VH: EVQLLESGGGLVQPGGSLRLSCAASGFTFSTAWMSWVRQAPGKGLEWVSRVNPSDSHTDYSPSFQDRFTISRDNSKNTLYLQMNSLRAEDTAVYYCARVPPGYGFDIWGQGTLVTVSS VL: EIVLTQSPGTLSLSPGERATLSCQASQDITNYLNWYQQKPGQAPRLLIYDASNRATGIPDRFSGSGSGTDFTLTISRLEPEDFAVYYCQQSYSTPFTFGQGTKVEIK	–	–	binds
4D2 scFv (scFv, V domains shown, One-chain scFv with an HA tag from a synthetic human scFv library, made in E. coli) VH: EVQLLESGGGLVQPGGSLRLSCAASGFTFSSYWIAWVRQAPGKGLEWVSTISGSGGYTYYAESVKGRFTISRDNSKNTLYLQMNSLRAEDTAVYYCARDSSGWLNYWGQGTLVTVSS VL: EIVLTQSPGTLSLSPGERATLSCRASQSITSHLAWYQQKPGQAPRLLIYDASNRATGIPDRFSGSGSGTDFTLTISRLEPEDFAVYYCQQYNNWPPITFGQGTKVEIK	–	–	binds
4D2 full IgG1 antibody (antibody, V domains shown, scFv clone converted to full IgG1, made in CHO-S cells; also called anti-VISTA antibody) VH: EVQLLESGGGLVQPGGSLRLSCAASGFTFSSYWIAWVRQAPGKGLEWVSTISGSGGYTYYAESVKGRFTISRDNSKNTLYLQMNSLRAEDTAVYYCARDSSGWLNYWGQGTLVTVSS VL: EIVLTQSPGTLSLSPGERATLSCRASQSITSHLAWYQQKPGQAPRLLIYDASNRATGIPDRFSGSGSGTDFTLTISRLEPEDFAVYYCQQYNNWPPITFGQGTKVEIKR	no binding (tested: 100 ng per well)	binds	–
4F2 scFv (scFv, V domains shown, One-chain scFv with an HA tag from a synthetic human scFv library, made in E. coli) VH: EVQLLESGGGLVQPGGSLRLSCAASGFTFSDYYMHWVRQAPGKGLEWVSEIIPIFDTANYAQKFQDRFTISRDNSKNTLYLQMNSLRAEDTAVYYCARSTGDYFDYWGQGTLVTVSS VL: QSVLTQPPSASGTPGQRVTISCSGDKLGNKYTSWYQQLPGTAPKLLIYDNNKRPSGVPDRFSGSKSGTSASLAISGLRSEDEADYYCGTWDSSLSAYVFGGGTKLTVL	–	–	binds
4F2 full IgG1 antibody (antibody, V domains shown, scFv clone converted to full IgG1, made in CHO-S cells; also called anti-VISTA antibody) VH: EVQLLESGGGLVQPGGSLRLSCAASGFTFSDYYMHWVRQAPGKGLEWVSEIIPIFDTANYAQKFQDRFTISRDNSKNTLYLQMNSLRAEDTAVYYCARSTGDYFDYWGQGTLVTVSS VL: QSVLTQPPSASGTPGQRVTISCSGDKLGNKYTSWYQQLPGTAPKLLIYDNNKRPSGVPDRFSGSKSGTSASLAISGLRSEDEADYYCGTWDSSLSAYVFGGGTKLTVLR	no binding (tested: 100 ng per well)	binds	–
4G3 full IgG1 antibody (antibody, V domains shown, scFv clone converted to full IgG1, made in CHO-S cells; also called anti-VISTA antibody) VH: EVQLLESGGGLVQPGGSLRLSCVASGFTFSEKSIHWVRQAPGKGLEWVSGTSANTGNTYYADSVKGRFTISRDNSKNTLYLQMNSLRAEDTAVYYCAHHNWAGYFDYWGQGTLVTVSS VL: EIVLTQSPGILSLSPGERATLSCQASHAISNYINWYQQKPGQAPRLLIYDASNRATGIPDRFSGSGSGTDFTLTISRLEPEDFAVYYCQQSNSFPYTFGQGTKVEIKR	no binding (tested: 100 ng per well)	binds	–
4G3 scFv (scFv, V domains shown, One-chain scFv with an HA tag from a synthetic human scFv library, made in E. coli) VH: EVQLLESGGGLVQPGGSLRLSCVASGFTFSEKSIHWVRQAPGKGLEWVSGTSANTGNTYYADSVKGRFTISRDNSKNTLYLQMNSLRAEDTAVYYCAHHNWAGYFDYWGQGTLVTVSS VL: EIVLTQSPGILSLSPGERATLSCQASHAISNYINWYQQKPGQAPRLLIYDASNRATGIPDRFSGSGSGTDFTLTISRLEPEDFAVYYCQQSNSFPYTFGQGTKVEIK	–	–	binds
4H2 full IgG1 antibody (antibody, V domains shown, scFv clone converted to full IgG1, made in CHO-S cells; also called anti-VISTA antibody) VH: EVQLLESGGGLVQPGGSLRLSCAASGFTFSTAWMSWVRQAPGKGLEWVSRVNPSDSHTDYSPSFQDRFTISRDNSKNTLYLQMNSLRAEDTAVYYCARVPPGYGFDIWGQGTLVTVSS VL: EIVLTQSPGTLSLSPGERATLSCQASQDITNYLNWYQQKPGQAPRLLIYDASNRATGIPDRFSGSGSGTDFTLTISRLEPEDFAVYYCQQSYSTPFTFGQGTKVEIKR	no binding (tested: 100 ng per well)	binds	–
